In general, Kd refers to the concentration at which binding is half-saturated. The low end stands for a tighter complex, the high end for a looser complex.

This passage reports Kd results from paper PMC8639777 (Nature, 2021).

Assay in all cases: BLI
The target of assay [1] is human ALK GRD (678-1030) E974R (human, UniProt Q9UM73 678-1030, E974R).
Assay [2] addresses human ALK glycine-rich domain (GRD), residues 678-1030, wild type (human, UniProt Q9UM73 678-1030).
Assay [3] deals with human ALK GRD (678-1030) E978R (human, UniProt Q9UM73 678-1030, E978R).
The target of assay [4] is human ALK GRD (678-1030) Y966R (human, UniProt Q9UM73 678-1030, Y966R).
Chain of human ALK GRD (678-1030) Y966R (Q9UM73 678-1030 Y966R): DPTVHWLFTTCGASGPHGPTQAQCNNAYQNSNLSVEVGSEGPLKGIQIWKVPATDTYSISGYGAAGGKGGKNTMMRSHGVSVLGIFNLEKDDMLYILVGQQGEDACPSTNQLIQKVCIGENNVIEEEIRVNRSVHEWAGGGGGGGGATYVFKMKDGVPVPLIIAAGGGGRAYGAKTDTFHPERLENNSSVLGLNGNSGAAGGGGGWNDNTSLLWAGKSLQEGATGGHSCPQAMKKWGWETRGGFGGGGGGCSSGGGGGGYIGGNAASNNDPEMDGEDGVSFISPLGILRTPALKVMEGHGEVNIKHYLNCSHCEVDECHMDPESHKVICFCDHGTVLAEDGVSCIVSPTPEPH

Chain of human ALK glycine-rich domain (GRD), residues 678-1030, wild type (Q9UM73 678-1030): as the sequence (Q9UM73 678-1030 Y966R) above, with R289Y counted along it
Chain of human ALK GRD (678-1030) E978R (Q9UM73 678-1030 E978R): as the sequence (Q9UM73 678-1030 Y966R) above, with R289Y, E301R counted along it
Chain of human ALK GRD (678-1030) E974R (Q9UM73 678-1030 E974R): as the sequence (Q9UM73 678-1030 Y966R) above, with R289Y, E297R counted along it

B1: human ALKAL2 ALKAL domain (ALKAL2-AD), residues 71-152, wild type (ligand, UniProt Q6UX46 71-152, looked up)
chain: AEAAGLGPSPEQRVEIVPRDLRMKDKFLKHLTGPLYFSPKCSKHFHRLYHNTRDCTIPAYYKRCARLLTRLAVSPVCMEDKQ
For the molecule B1, the dissociation constant Kd amounted to 1.41 µM in assay [1], 0.329 µM in assay [2], 6.11 µM in assay [3] and 5.12 µM in assay [4].

B2: human ALKAL2-AD (71-152) R123E (ligand, UniProt Q6UX46 71-152, looked up)
chain: AEAAGLGPSPEQRVEIVPRDLRMKDKFLKHLTGPLYFSPKCSKHFHRLYHNTEDCTIPAYYKRCARLLTRLAVSPVCMEDKQ
Regarding B2, in assay [2], the Kd was 0.391 µM.

B3: human ALKAL2-AD (71-152) R140E (ligand, UniProt Q6UX46 71-152, looked up)
chain: AEAAGLGPSPEQRVEIVPRDLRMKDKFLKHLTGPLYFSPKCSKHFHRLYHNTRDCTIPAYYKRCARLLTELAVSPVCMEDKQ
As to B3, binding in assay [2] was put at a Kd of 2.95 µM.
